Test results from the supplement of paper PMC9112550, “Optimization of the antimicrobial peptide Bac7 by deep mutational scanning” (BMC Biology, 2022).

Tested on: Escherichia coli TOP10
Assay: shrunken log2 fold change of peptide-encoding DNA abundance (4.5 h post-induction vs induction); higher = less antimicrobial activity (less host growth inhibition)
Details: time post-induction: 4.5 h; library: site-saturation at positions 5, 18, 19, 20
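Note: peptides expressed intracellularly from a pBAD plasmid library in pooled LB shake-flask culture, induced with 0.3% L-arabinose, DNA abundance read by NGS, three biological replicates, DESeq2 with apeglm shrinkage.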

Sequence | shrunken log2 fold change
RRIRLRPPRLPRPRPRPDRSPRP | -0.0286
RRIRLRPPRLPRPRPRPDRYPRP | -0.063
RRIRLRPPRLPRPRPRPDSCPRP | -0.851
RRIRLRPPRLPRPRPRPDTGPRP | -0.243
RRIRLRPPRLPRPRPRPDVEPRP | -0.0825
RRIRLRPPRLPRPRPRPDWIPRP | -0.0697
RRIRLRPPRLPRPRPRPDWMPRP | -0.152
RRIRLRPPRLPRPRPRPDYAPRP | -0.224
RRIRLRPPRLPRPRPRPDYCPRP | 0.0561
RRIRLRPPRLPRPRPRPDYIPRP | -0.161
RRIRLRPPRLPRPRPRPEADPRP | 0.357
RRIRLRPPRLPRPRPRPEDDPRP | 0.0572
RRIRLRPPRLPRPRPRPEEAPRP | 0.495
RRIRLRPPRLPRPRPRPEENPRP | -0.00256
RRIRLRPPRLPRPRPRPEFEPRP | 0.0191
RRIRLRPPRLPRPRPRPEHNPRP | -0.204
RRIRLRPPRLPRPRPRPEIAPRP | 0.167
RRIRLRPPRLPRPRPRPEIVPRP | 0.0118
RRIRLRPPRLPRPRPRPEKCPRP | -0.0157
RRIRLRPPRLPRPRPRPEMIPRP | 0.0183

Sequence | shrunken log2 fold change
RRIRLRPPRLPRPRPRPENDPRP | -0.336
RRIRLRPPRLPRPRPRPENNPRP | -0.406
RRIRLRPPRLPRPRPRPEPMPRP | -0.0888
RRIRLRPPRLPRPRPRPEPRPRP | 0.74
RRIRLRPPRLPRPRPRPESRPRP | 0.0418
RRIRLRPPRLPRPRPRPEVKPRP | -0.108
RRIRLRPPRLPRPRPRPEVPPRP | 0.0129
RRIRLRPPRLPRPRPRPEVTPRP | -0.046
RRIRLRPPRLPRPRPRPEYMPRP | -0.741
RRIRLRPPRLPRPRPRPFCIPRP | -0.22
RRIRLRPPRLPRPRPRPFDWPRP | -0.133
RRIRLRPPRLPRPRPRPFEMPRP | -0.00193
RRIRLRPPRLPRPRPRPFFDPRP | -0.0987
RRIRLRPPRLPRPRPRPFFPPRP | -0.225
RRIRLRPPRLPRPRPRPFFTPRP | -0.144
RRIRLRPPRLPRPRPRPFFYPRP | -0.343
RRIRLRPPRLPRPRPRPFGDPRP | -0.186
RRIRLRPPRLPRPRPRPFGPPRP | 0.0996
RRIRLRPPRLPRPRPRPFGQPRP | -0.11
RRIRLRPPRLPRPRPRPFHNPRP | -0.336

Sequence | shrunken log2 fold change
RRIRLRPPRLPRPRPRPFHVPRP | -0.0193
RRIRLRPPRLPRPRPRPFIGPRP | -0.305
RRIRLRPPRLPRPRPRPFIIPRP | -0.271
RRIRLRPPRLPRPRPRPFKAPRP | 0.181
RRIRLRPPRLPRPRPRPFLCPRP | -0.353
RRIRLRPPRLPRPRPRPFMGPRP | -0.141
RRIRLRPPRLPRPRPRPFNDPRP | 0.0825
RRIRLRPPRLPRPRPRPFNWPRP | -0.223
RRIRLRPPRLPRPRPRPFQMPRP | -0.193
RRIRLRPPRLPRPRPRPFRFPRP | -0.212
RRIRLRPPRLPRPRPRPFSWPRP | -0.213
RRIRLRPPRLPRPRPRPFVLPRP | -0.513
RRIRLRPPRLPRPRPRPFWMPRP | -0.0876
RRIRLRPPRLPRPRPRPGATPRP | 0.527
RRIRLRPPRLPRPRPRPGCFPRP | 0.269
RRIRLRPPRLPRPRPRPGCPPRP | 0.0643
RRIRLRPPRLPRPRPRPGDSPRP | -0.23
RRIRLRPPRLPRPRPRPGFSPRP | -0.161
RRIRLRPPRLPRPRPRPGGIPRP | -0.0154
RRIRLRPPRLPRPRPRPGGQPRP | 0.319
